Experimental data from patent publication US9393271B2, “GHRH agonists for islet cell transplantation and function and the treatment of diabetes” (UNIVERSITY OF MIAMI, priority 2012, dated 2016).
Non-standard residues stand in square brackets, D forms with d. No end group written: not given here. *: point of attachment. Phe(F5) = N[C@@H](Cc1c(F)c(F)c(F)c(F)c1F)C(=O)O; Desaminotyrosyl = O=C(CCc1ccc(O)cc1)*; NMeY = CN[C@@H](Cc1ccc(O)cc1)C(=O)O; Agmatine = N=C(N)NCCCCN*; NMeA = CN[C@@H](C)C(=O)O; Nle = CCCC[C@H](N)C(=O)O; Orn = NCCC[C@H](N)C(=O)O; Abu = CC[C@H](N)C(=O)O; Aoc = NCCCCCCCC(=O)O; Ava = NCCCCC(=O)O; GABA = NCCCC(=O)O

B1: [Ac-N-Me-Tyr1, D-Ala2, Gln8, Orn12, Abu15, Orn21, Nle27, Asp28, Agm29]hGHRH(1-29) (peptide)
peptide: Ac-[NMeY][dA]DAIFTQSYR[Orn]VL[Abu]QLSAR[Orn]LLQDI[Nle]D[Agmatine]
SMILES: CCCC[C@H](NC(=O)[C@@H](NC(=O)[C@H](CC(=O)O)NC(=O)[C@H](CCC(N)=O)NC(=O)[C@H](CC(C)C)NC(=O)[C@H](CC(C)C)NC(=O)[C@H](CCCN)NC(=O)[C@H](CCCNC(=N)N)NC(=O)[C@H](C)NC(=O)[C@H](CO)NC(=O)[C@H](CC(C)C)NC(=O)[C@H](CCC(N)=O)NC(=O)[C@H](CC)NC(=O)[C@H](CC(C)C)NC(=O)[C@@H](NC(=O)[C@H](CCCN)NC(=O)[C@H](CCCNC(=N)N)NC(=O)[C@H](Cc1ccc(O)cc1)NC(=O)[C@H](CO)NC(=O)[C@H](CCC(N)=O)NC(=O)[C@@H](NC(=O)[C@H](Cc1ccccc1)NC(=O)[C@@H](NC(=O)[C@H](C)NC(=O)[C@H](CC(=O)O)NC(=O)[C@@H](C)NC(=O)[C@H](Cc1ccc(O)cc1)N(C)C(C)=O)[C@@H](C)CC)[C@@H](C)O)C(C)C)[C@@H](C)CC)C(=O)N[C@@H](CC(=O)O)C(=O)NCCCCNC(=N)N
B2: [Dat1, Gln8, Orn12, Abu15, Orn21, Nle27, Asp28, Apa30]hGHRH(1-30)NH2 (peptide)
peptide: [Desaminotyrosyl]ADAIFTQSYR[Orn]VL[Abu]QLSAR[Orn]LLQDI[Nle]DR[Ava]-NH2
SMILES: CCCC[C@H](NC(=O)[C@@H](NC(=O)[C@H](CC(=O)O)NC(=O)[C@H](CCC(N)=O)NC(=O)[C@H](CC(C)C)NC(=O)[C@H](CC(C)C)NC(=O)[C@H](CCCN)NC(=O)[C@H](CCCNC(=N)N)NC(=O)[C@H](C)NC(=O)[C@H](CO)NC(=O)[C@H](CC(C)C)NC(=O)[C@H](CCC(N)=O)NC(=O)[C@H](CC)NC(=O)[C@H](CC(C)C)NC(=O)[C@@H](NC(=O)[C@H](CCCN)NC(=O)[C@H](CCCNC(=N)N)NC(=O)[C@H](Cc1ccc(O)cc1)NC(=O)[C@H](CO)NC(=O)[C@H](CCC(N)=O)NC(=O)[C@@H](NC(=O)[C@H](Cc1ccccc1)NC(=O)[C@@H](NC(=O)[C@H](C)NC(=O)[C@H](CC(=O)O)NC(=O)[C@H](C)NC(=O)CCc1ccc(O)cc1)[C@@H](C)CC)[C@@H](C)O)C(C)C)[C@@H](C)CC)C(=O)N[C@@H](CC(=O)O)C(=O)N[C@@H](CCCNC(=N)N)C(=O)NCCCCC(N)=O
B3: [Dat1, D-Ala2, N-Me-Ala8, Orn12, Abu15, Orn21, Nle27, Asp28, Agm29]hGHRH(1-29) (peptide)
peptide: [Desaminotyrosyl][dA]DAIFT[NMeA]SYR[Orn]VL[Abu]QLSAR[Orn]LLQDI[Nle]D[Agmatine]
SMILES: CCCC[C@H](NC(=O)[C@@H](NC(=O)[C@H](CC(=O)O)NC(=O)[C@H](CCC(N)=O)NC(=O)[C@H](CC(C)C)NC(=O)[C@H](CC(C)C)NC(=O)[C@H](CCCN)NC(=O)[C@H](CCCNC(=N)N)NC(=O)[C@H](C)NC(=O)[C@H](CO)NC(=O)[C@H](CC(C)C)NC(=O)[C@H](CCC(N)=O)NC(=O)[C@H](CC)NC(=O)[C@H](CC(C)C)NC(=O)[C@@H](NC(=O)[C@H](CCCN)NC(=O)[C@H](CCCNC(=N)N)NC(=O)[C@H](Cc1ccc(O)cc1)NC(=O)[C@H](CO)NC(=O)[C@H](C)N(C)C(=O)[C@@H](NC(=O)[C@H](Cc1ccccc1)NC(=O)[C@@H](NC(=O)[C@H](C)NC(=O)[C@H](CC(=O)O)NC(=O)[C@@H](C)NC(=O)CCc1ccc(O)cc1)[C@@H](C)CC)[C@@H](C)O)C(C)C)[C@@H](C)CC)C(=O)N[C@@H](CC(=O)O)C(=O)NCCCCNC(=N)N
B4: [N-Me-Tyr1, Orn12, Abu15, Orn21, Nle27, Asp28, Amc30]hGHRH(1-30)NH2 (peptide)
peptide: [NMeY]ADAIFTNSYR[Orn]VL[Abu]QLSAR[Orn]LLQDI[Nle]DR[Aoc]-NH2
modifications: N-terminus assumed
SMILES: CCCC[C@H](NC(=O)[C@@H](NC(=O)[C@H](CC(=O)O)NC(=O)[C@H](CCC(N)=O)NC(=O)[C@H](CC(C)C)NC(=O)[C@H](CC(C)C)NC(=O)[C@H](CCCN)NC(=O)[C@H](CCCNC(=N)N)NC(=O)[C@H](C)NC(=O)[C@H](CO)NC(=O)[C@H](CC(C)C)NC(=O)[C@H](CCC(N)=O)NC(=O)[C@H](CC)NC(=O)[C@H](CC(C)C)NC(=O)[C@@H](NC(=O)[C@H](CCCN)NC(=O)[C@H](CCCNC(=N)N)NC(=O)[C@H](Cc1ccc(O)cc1)NC(=O)[C@H](CO)NC(=O)[C@H](CC(N)=O)NC(=O)[C@@H](NC(=O)[C@H](Cc1ccccc1)NC(=O)[C@@H](NC(=O)[C@H](C)NC(=O)[C@H](CC(=O)O)NC(=O)[C@H](C)NC(=O)[C@H](Cc1ccc(O)cc1)NC)[C@@H](C)CC)[C@@H](C)O)C(C)C)[C@@H](C)CC)C(=O)N[C@@H](CC(=O)O)C(=O)N[C@@H](CCCNC(=N)N)C(=O)NCCCCCCCC(N)=O
B5: [N-Me-Tyr1, Abu2, Orn12, Abu15, Orn21, Nle27, Gab30]hGHRH(1-30)NH2 (peptide)
peptide: [NMeY][Abu]DAIFTNSYR[Orn]VL[Abu]QLSAR[Orn]LLQDI[Nle]SR[GABA]-NH2
modifications: N-terminus assumed
SMILES: CCCC[C@H](NC(=O)[C@@H](NC(=O)[C@H](CC(=O)O)NC(=O)[C@H](CCC(N)=O)NC(=O)[C@H](CC(C)C)NC(=O)[C@H](CC(C)C)NC(=O)[C@H](CCCN)NC(=O)[C@H](CCCNC(=N)N)NC(=O)[C@H](C)NC(=O)[C@H](CO)NC(=O)[C@H](CC(C)C)NC(=O)[C@H](CCC(N)=O)NC(=O)[C@H](CC)NC(=O)[C@H](CC(C)C)NC(=O)[C@@H](NC(=O)[C@H](CCCN)NC(=O)[C@H](CCCNC(=N)N)NC(=O)[C@H](Cc1ccc(O)cc1)NC(=O)[C@H](CO)NC(=O)[C@H](CC(N)=O)NC(=O)[C@@H](NC(=O)[C@H](Cc1ccccc1)NC(=O)[C@@H](NC(=O)[C@H](C)NC(=O)[C@H](CC(=O)O)NC(=O)[C@H](CC)NC(=O)[C@H](Cc1ccc(O)cc1)NC)[C@@H](C)CC)[C@@H](C)O)C(C)C)[C@@H](C)CC)C(=O)N[C@@H](CO)C(=O)N[C@@H](CCCNC(=N)N)C(=O)NCCCC(N)=O

The binders below were run against T1, GHRH receptor in human pituitary membrane homogenates (human, UniProt Q02643) (assay: ligand competition, 125I-JV-1-42 displaced, human pituitary membranes).
T1 sequence: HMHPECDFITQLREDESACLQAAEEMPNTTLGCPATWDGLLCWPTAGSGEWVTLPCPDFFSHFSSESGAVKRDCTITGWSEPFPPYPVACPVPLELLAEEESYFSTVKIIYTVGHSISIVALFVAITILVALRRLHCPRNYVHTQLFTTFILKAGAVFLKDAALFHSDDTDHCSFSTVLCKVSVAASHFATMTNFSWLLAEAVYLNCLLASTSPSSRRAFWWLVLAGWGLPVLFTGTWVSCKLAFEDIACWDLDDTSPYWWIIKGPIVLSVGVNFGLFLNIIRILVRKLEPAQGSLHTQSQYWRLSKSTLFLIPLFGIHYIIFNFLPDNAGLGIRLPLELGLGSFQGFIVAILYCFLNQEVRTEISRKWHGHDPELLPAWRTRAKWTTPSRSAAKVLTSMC
With B1 the IC50 was 3.44 nM and the “relative affinity (binding potency) vs JI-38” value (“relative affinity” for short) was 1.26 JI-38 = 1. For [NMeY]ADAIFTQSYR[Orn]VL[Abu]QLSAR[Orn]LLQDI[Nle]SR-NHMe (not fully specified) [[N-Me-Tyr1, Gln8, Orn12, Abu15, Orn21, Nle27]hGHRH(1-29)NH-CH3], the IC50 was 1.08 nM and the “relative affinity” value was 4.03 JI-38 = 1. With B2 the IC50 was 1.99 nM and the “relative affinity” value was 2.18 JI-38 = 1. [NMeY]ADAIFTNSYR[Orn]VL[Abu]QLSAR[Orn]LLQDI[Nle]SR[GABA]-NHMe [[N-Me-Tyr1, Orn12, Abu15, Orn21, Nle27, Gab30]hGHRH(1-30)NH-CH3] was tested, and the IC50 was 3.02 nM and the “relative affinity” value was 1.44 JI-38 = 1. [NMeY][dA]DAIFTQSYR[Orn]VL[Abu]QLSAR[Orn]LLQDI[Nle]D[Agmatine] [[N-Me-Tyr1, D-Ala2, Gln8, Orn12, Abu15, Orn21, Nle27, Asp28, Agm29]hGHRH(1-29)] was tested, and the IC50 was 0.82 nM and the “relative affinity” value was 5.3 JI-38 = 1. In the case of [Desaminotyrosyl]ADAIFTQSYR[Orn]VL[Abu]QLSAR[Orn]LLQDI[Nle]DR-NHMe (not fully specified) [[Dat1, Gln8, Orn12, Abu15, Orn21, Nle27, Asp28]hGHRH(1-29)NH-CH3], the IC50 is reported as 3 nM and the “relative affinity” value is reported as 1.45 JI-38 = 1. B3 was tested, and the IC50 was 0.86 nM and the “relative affinity” value was 5.06 JI-38 = 1. In the case of [NMeY]ADAIFTQSYR[Orn]VL[Abu]QLSAR[Orn]LLQDI[Nle]SRQ-{GABA-NH2} [[N-Me-Tyr1, Gln8, Orn12, Abu15, Orn21, Nle27, Gln-Gab30]hGHRH(1-30)NH2], the IC50 is reported as 1.22 nM and the “relative affinity” value is reported as 3.57 JI-38 = 1. In the case of [NMeY][dA]DAIFTNSYR[Orn]VL[Abu]QLSAR[Orn]LLQDI[Nle]D[Agmatine] [[N-Me-Tyr1, D-Ala2, Orn12, Abu15, Orn21, Nle27, Asp28, Agm29]hGHRH(1-29)], the IC50 is reported as 1.7 nM and the “relative affinity” value is reported as 2.56 JI-38 = 1. For [NMeY][dA]DAI[Phe(F5)]TNSYR[Orn]VL[Abu]QLSAR[Orn]LLQDI[Nle]D[Agmatine] [[N-Me-Tyr1, D-Ala2, Fpa5-6, Orn12, Abu15, Orn21, Nle27, Asp28, Agm29]hGHRH(1-29)], the IC50 was 3.05 nM and the “relative affinity” value was 1.43 JI-38 = 1. In the case of B4, the IC50 is reported as 2.99 nM and the “relative affinity” value is reported as 1.45 JI-38 = 1. In the case of B5, the IC50 is reported as 1.18 nM and the “relative affinity” value is reported as 3.67 JI-38 = 1. [Desaminotyrosyl]ADAIFTQSYH[Orn]VL[Abu]QLSAH[Orn]LLQDI[Nle]DR-NHMe (not fully specified) [[Dat1, Gln8, His11, Orn12, Abu15, His20, Orn21, Nle27, Asp28]hGHRH(1-29)NH-CH3] was tested, and the IC50 was 2.45 nM and the “relative affinity” value was 1.78 JI-38 = 1. [NMeY]ADAIFTQSYR[Orn]VL[Abu]QLSAR[Orn]LLQDI[Nle]DR[Ava]-NH2 [[N-Me-Tyr1, Gln8, Orn12, Abu15, Orn21, Nle27, Asp28, Apa30]hGHRH(1-30)NH2] was tested, and the IC50 was 3.8 nM and the “relative affinity” value was 1.14 JI-38 = 1. With [NMeY][dA]DAI[Phe(F5)]TNSYR[Orn]VL[Abu]QLSAR[Orn]LLQDI[Nle]DR-NHMe [[N-Me-Tyr1, D-Ala2, Fpa5-6, Orn12, Abu15, Orn21, Nle27, Asp28]hGHRH(1-29)NH-CH3] the IC50 was 0.87 nM and the “relative affinity” value was 5 JI-38 = 1. With [NMeY]ADAIFTQSYR[Orn]VL[Abu]QLSAR[Orn]LLQDI[Nle]DR-NHMe (not fully specified) [[N-Me-Tyr1, Gln8, Orn12, Abu15, Orn21, Nle27, Asp28]hGHRH(1-29)NH-CH3] the IC50 was 0.3 nM and the “relative affinity” value was 14.5 JI-38 = 1.
